Reference: patent publication US20090232794A1 (published 2009)

Columns and labels:
[1] = biological target: T1, purified human C1q protein (human, UniProt P02745 23-245; P02746 28-253; P02747 29-245); test: purified human C1q on transfected COS7 cells, anti-C1q-FITC immunofluorescence
Method: COS7 cells were transfected with cDNA's encoding full-length NgR or PirB. […] Cells were washed four times with Hank's Buffered Saline Solution (HBSS), fixed for five minutes with 2% paraformaldehyde, washed four times with HBSS, and blocked for 15 minutes with 10% heat-inactivated goat serum (RIGS) in HBSS. […] Immunofluorescence was detected using a Zeiss Axioskop fluorescence microscope.

[2] = biological target: T1, purified human C1q protein; test: purified human C1q on transfected cells, anti-C1q-FITC immunofluorescence

T1 sequence (P02745 23-245, chain 1 of 3): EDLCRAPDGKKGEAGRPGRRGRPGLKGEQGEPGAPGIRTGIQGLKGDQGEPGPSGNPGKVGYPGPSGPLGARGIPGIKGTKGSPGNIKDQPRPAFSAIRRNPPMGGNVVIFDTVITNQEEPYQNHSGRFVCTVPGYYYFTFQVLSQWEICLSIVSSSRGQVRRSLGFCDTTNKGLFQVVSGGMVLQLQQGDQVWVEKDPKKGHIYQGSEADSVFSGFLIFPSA
T1 sequence (P02746 28-253, chain 2 of 3): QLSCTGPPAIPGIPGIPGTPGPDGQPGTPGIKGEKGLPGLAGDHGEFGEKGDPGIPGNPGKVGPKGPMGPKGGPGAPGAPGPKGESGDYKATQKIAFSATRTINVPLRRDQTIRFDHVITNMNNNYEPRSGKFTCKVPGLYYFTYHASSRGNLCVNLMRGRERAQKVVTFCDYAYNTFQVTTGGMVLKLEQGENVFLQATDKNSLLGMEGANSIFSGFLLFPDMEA
T1 sequence (P02747 29-245, chain 3 of 3): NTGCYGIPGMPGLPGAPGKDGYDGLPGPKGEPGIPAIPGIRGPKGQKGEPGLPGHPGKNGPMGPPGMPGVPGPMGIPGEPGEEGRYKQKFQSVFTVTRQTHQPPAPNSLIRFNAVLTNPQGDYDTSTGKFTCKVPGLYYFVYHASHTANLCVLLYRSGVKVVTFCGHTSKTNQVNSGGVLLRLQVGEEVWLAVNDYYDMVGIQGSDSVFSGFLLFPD

Row | binding result [1] | binding result [2] | Binder
1 | binds | – | PirB (paired-immunoglobulin-like receptor B), full-length, expressed on transfected COS7 cells (receptor, COS7 cells were transfected with cDNA encoding full-length PirB; In the antibody outgrowth assays the target is the PirB of mouse neurons) SLPKPILRVQPDSVVSRWTKVTFFCEETIGANEYRLYKDGKLYKTVTKNKQKPANKAEFSLSNVDLRNAGQYRCSYSTQYKSSGYSDPLELVVTGDYWTPSLLAQASPVVTSGGYVTLQCESWHNDHKFILTVEGPQKLSWTQDSQYNYSTRKYHALFSVGPVTPNQRWICRCYSYDRNRPYVWSPPSESVELLVSGNLQKPTIKAEPGPVIASKRAMTIWCQGNLDAEVYFLHNEGSQKTQSTQTLQQPGNKGKFFIPSMTRQHAGQYRCYCYGSAGWSQPSDTLELVVTGIYEHYKPRLSVLPSPVVTAGGNMTLHCASDFHYDKFILTKEDKKFGNSLDTEHISSSRQYRALFIIGPTTPTHTGTFRCYGYFKNAPQLWSVPSDLQQILISGLSKKPSLLTHQGHILDPGMTLTLQCYSDINYDRFALHKVGGADIMQHSSQQTDTGFSVANFTLGYVSSSTGGQYRCYGAHNLSSEWSASSEPLDILITGQLPLTPSLSVKPNHTVHSGETVSLLCWSMDSVDTFILSKEGSAQQPLRLKSKSHDQQSQAEFSMSAVTSHLSGTYRCYGAQNSSFYLLSSASAPVELTVSGPIETSTPPPTMSMPLGGLHMYLKALIGVSVAFILFLFILIFILLRRRHRGKFRKDVQKEKDLQLSSGAEEPITRKGELQKRPNPAAATQEESLYASVEDMQTEDGVELNSWTPPEEDPQGETYAQVKPSRLRKAGHVSPSVMSREQLNTEYEQAEEGQGANNQAAESGESQDVTYAQLCSRTLRQGAAASPLSQAGEAPEEPSVYATLAAARPEAVPKDVEQ
2 | – | binds | LILRB2, expressed on transfected COS7 cells (receptor, also called ILT4; LIR2) QTGTIPKPTLWAEPDSVITQGSPVTLSCQGSLEAQEYRLYREKKSASWITRIRPELVKNGQFHIPSITWEHTGRYGCQYYSRARWSELSDPLVLVMTGAYPKPTLSAQPSPVVTSGGRVTLQCESQVAFGGFILCKEGEDEHPQCLNSQPHARGSSRAIFSVGPVSPNRRWSHRCYGYDLNSPYVWSSPSDLLELLVPGVSKKPSLSVQPGPVVAPGESLTLQCVSDVGYDRFVLYKEGERDLRQLPGRQPQAGLSQANFTLGPVSRSYGGQYRCYGAYNLSSEWSAPSDPLDILITGQIHGTPFISVQPGPTVASGENVTLLCQSWRQFHTFLLTKAGAADAPLRLRSIHEYPKYQAEFPMSPVTSAHAGTYRCYGSLNSDPYLLSHPSEPLELVVSGPSMGSSPPPTGPISTPAGPEDQPLTPTGSDPQSGLGRHLGVVIGILVAVVLLLLLLLLLFLILRHRRQGKHWTSTQRKADFQHPAGAVGPEPTDRGLQWRSSPAADAQEENLYAAVKDTQPEDGVEMDTRAAASEAPQDVTYAQLHSLTLRRKATEPPPSQEREPPAEPSIYATLAIH
